# T1: 4H3625-AA
# T1 chain: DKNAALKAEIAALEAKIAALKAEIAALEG
# T2: 4H134-AA
# T2 chain: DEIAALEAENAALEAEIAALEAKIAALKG
# T3: O11-AA
# T3 chain: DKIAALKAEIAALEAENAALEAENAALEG
# T4: 4H3587-AA
# T4 chain: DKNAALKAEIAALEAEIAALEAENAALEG
# T5: 4H_APH
# T5 chain: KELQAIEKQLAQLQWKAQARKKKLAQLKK
# T6: 4H337-AA
# T6 chain: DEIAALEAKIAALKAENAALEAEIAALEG
# T7: 4H3590-AA
# T7 chain: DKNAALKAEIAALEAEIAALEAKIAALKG
# T8: 4H2736-AA
# T8 chain: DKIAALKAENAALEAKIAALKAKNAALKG
# T9: 4H_BCR
# T9 chain: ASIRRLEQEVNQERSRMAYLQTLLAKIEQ
# T10: O13-AA
# T10 chain: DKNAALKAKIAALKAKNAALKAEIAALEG
# T11: 4H1350-AA
# T11 chain: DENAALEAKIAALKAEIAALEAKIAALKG
# T12: 4H4038-AA
# T12 chain: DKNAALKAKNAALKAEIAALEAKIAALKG
# T13: 4H384-AA
# T13 chain: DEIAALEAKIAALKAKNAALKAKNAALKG
# T14: O14-AA
# T14 chain: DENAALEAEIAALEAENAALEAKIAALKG
# T15: 4H451-AA
# T15 chain: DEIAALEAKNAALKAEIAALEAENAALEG
# T16: 4H1385-AA
# T16 chain: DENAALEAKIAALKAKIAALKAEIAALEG
# T17: 4H1392-AA
# T17 chain: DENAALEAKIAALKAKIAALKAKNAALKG
# T18: 4H3049-AA
# T18 chain: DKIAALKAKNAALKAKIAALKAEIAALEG
# T19: 4H2888-AA
# T19 chain: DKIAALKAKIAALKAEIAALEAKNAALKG
# T20: 4H510-AA
# T20 chain: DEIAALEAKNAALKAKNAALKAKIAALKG
# T21: 4H43-AA
# T21 chain: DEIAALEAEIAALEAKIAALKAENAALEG
# T22: 4H2705-AA
# T22 chain: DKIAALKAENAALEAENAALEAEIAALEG
# T23: 4H3905-AA
# T23 chain: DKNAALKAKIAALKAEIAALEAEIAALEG
# T24: 4H1193-AA
# T24 chain: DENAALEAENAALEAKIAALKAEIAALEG
# T25: 4H2622-AA
# T25 chain: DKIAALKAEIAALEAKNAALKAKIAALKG
# T26: 4H1158-bH
# T26 chain: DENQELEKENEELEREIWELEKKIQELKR
# T27: 4H118-bH
# T27 chain: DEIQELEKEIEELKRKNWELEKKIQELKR
# T28: 4H953-bH
# T28 chain: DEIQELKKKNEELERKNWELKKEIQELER
# T29: 4H3112-bH
# T29 chain: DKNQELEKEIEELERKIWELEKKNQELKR
# T30: 4H2627-bH
# T30 chain: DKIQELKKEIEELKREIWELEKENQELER
# T31: 4H346-bH
# T31 chain: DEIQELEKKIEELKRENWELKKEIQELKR
# T32: 4H754-bH
# T32 chain: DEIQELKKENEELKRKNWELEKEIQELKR
# T33: 4H968-bH
# T33 chain: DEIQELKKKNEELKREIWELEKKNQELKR
# T34: 4H3010-bH
# T34 chain: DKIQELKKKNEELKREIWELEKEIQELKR
# T35: 4H112-bH
# T35 chain: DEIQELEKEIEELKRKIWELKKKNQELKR
# T36: 4H2233-bH
# T36 chain: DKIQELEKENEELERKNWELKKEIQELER
# T37: 4H170-bH
# T37 chain: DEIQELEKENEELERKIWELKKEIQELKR
# T38: 4H797-bH
# T38 chain: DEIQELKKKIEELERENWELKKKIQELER
# T39: 4H780-bH
# T39 chain: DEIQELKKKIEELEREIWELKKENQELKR
# T40: 4H918-bH
# T40 chain: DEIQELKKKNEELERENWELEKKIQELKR
# T41: 4H2673-bH
# T41 chain: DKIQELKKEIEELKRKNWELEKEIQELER
# T42: 4H2702-bH
# T42 chain: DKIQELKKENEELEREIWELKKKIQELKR
# T43: 4H575-bH
# T43 chain: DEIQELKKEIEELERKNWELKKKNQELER
# T44: 4H2586-bH
# T44 chain: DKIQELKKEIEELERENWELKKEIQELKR
# T45: 4H457-bH
# T45 chain: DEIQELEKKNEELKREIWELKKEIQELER
# T46: 4H855-bH
# T46 chain: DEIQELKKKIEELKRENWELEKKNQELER
# T47: 4H1831-bH
# T47 chain: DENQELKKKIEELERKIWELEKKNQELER
# T48: 4H683-bH
# T48 chain: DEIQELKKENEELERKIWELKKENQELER
# T49: 4H3926-bH
# T49 chain: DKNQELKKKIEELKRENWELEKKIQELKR
# T50: 4H4073-bH
# T50 chain: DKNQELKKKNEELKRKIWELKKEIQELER
# T51: 4H3427-bH
# T51 chain: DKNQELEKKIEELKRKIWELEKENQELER
# Columns and labels:
# 4H3625-AA = biological target: T1, 4H3625-AA; experiment: two-hybrid library CCmax; conditions: mean of both orientations;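 also: natural log of median RNA to DNA barcode read ratio; higher means stronger binding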
# 4H134-AA = biological target: T2, 4H134-AA; experiment: two-hybrid library CCmax; conditions: mean of both orientations;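 also: natural log of median RNA to DNA barcode read ratio; higher means stronger binding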
# O11-AA = biological target: T3, O11-AA; experiment: two-hybrid library CCmax; conditions: mean of both orientations;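 also: natural log of median RNA to DNA barcode read ratio; higher means stronger binding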
# 4H3587-AA = biological target: T4, 4H3587-AA; experiment: two-hybrid library CCmax; conditions: mean of both orientations;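 also: natural log of median RNA to DNA barcode read ratio; higher means stronger binding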
# 4H_APH = biological target: T5, 4H_APH; experiment: two-hybrid library CCmax; conditions: mean of both orientations;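 also: natural log of median RNA to DNA barcode read ratio; higher means stronger binding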
# 4H337-AA = biological target: T6, 4H337-AA; experiment: two-hybrid library CCmax; conditions: mean of both orientations;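 also: natural log of median RNA to DNA barcode read ratio; higher means stronger binding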
# 4H3590-AA = biological target: T7, 4H3590-AA; experiment: two-hybrid library CCmax; conditions: mean of both orientations
# 4H2736-AA = biological target: T8, 4H2736-AA; experiment: two-hybrid library CCmax; conditions: mean of both orientations
# 4H_BCR = biological target: T9, 4H_BCR; experiment: two-hybrid library CCmax; conditions: mean of both orientations
# O13-AA = biological target: T10, O13-AA; experiment: two-hybrid library CCmax; conditions: mean of both orientations
# 4H1350-AA = biological target: T11, 4H1350-AA; experiment: two-hybrid library CCmax; conditions: mean of both orientations
# 4H4038-AA = biological target: T12, 4H4038-AA; experiment: two-hybrid library CCmax; conditions: mean of both orientations
# 4H384-AA = biological target: T13, 4H384-AA; experiment: two-hybrid library CCmax; conditions: mean of both orientations
# O14-AA = biological target: T14, O14-AA; experiment: two-hybrid library CCmax; conditions: mean of both orientations
# 4H451-AA = biological target: T15, 4H451-AA; experiment: two-hybrid library CCmax; conditions: mean of both orientations
# 4H1385-AA = biological target: T16, 4H1385-AA; experiment: two-hybrid library CCmax; conditions: mean of both orientations
# 4H1392-AA = biological target: T17, 4H1392-AA; experiment: two-hybrid library CCmax; conditions: mean of both orientations
# 4H3049-AA = biological target: T18, 4H3049-AA; experiment: two-hybrid library CCmax; conditions: mean of both orientations
# 4H2888-AA = biological target: T19, 4H2888-AA; experiment: two-hybrid library CCmax; conditions: mean of both orientations
# GCN2_T = experiment: two-hybrid library CCmax; conditions: mean of both orientations
# 4H_GCN4 = experiment: two-hybrid library CCmax
# 4H_GCN4, sequence (chain, as listed by the source): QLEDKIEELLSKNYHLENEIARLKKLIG
# 4H510-AA = biological target: T20, 4H510-AA; experiment: two-hybrid library CCmax; conditions: mean of both orientations
# 4H43-AA = biological target: T21, 4H43-AA; experiment: two-hybrid library CCmax; conditions: mean of both orientations
# 4H2705-AA = biological target: T22, 4H2705-AA; experiment: two-hybrid library CCmax; conditions: mean of both orientations
# 4H3905-AA = biological target: T23, 4H3905-AA; experiment: two-hybrid library CCmax; conditions: mean of both orientations
# 4H1193-AA = biological target: T24, 4H1193-AA; experiment: two-hybrid library CCmax
# 4H2622-AA = biological target: T25, 4H2622-AA; experiment: two-hybrid library CCmax; conditions: mean of both orientations
# 4H1158-bH = biological target: T26, 4H1158-bH; experiment: two-hybrid library CCNG1
# 4H118-bH = biological target: T27, 4H118-bH; experiment: two-hybrid library CCNG1
# 4H953-bH = biological target: T28, 4H953-bH; experiment: two-hybrid library CCNG1
# 4H3112-bH = biological target: T29, 4H3112-bH; experiment: two-hybrid library CCNG1
# 4H2627-bH = biological target: T30, 4H2627-bH; experiment: two-hybrid library CCNG1
# 4H346-bH = biological target: T31, 4H346-bH; experiment: two-hybrid library CCNG1
# 4H754-bH = biological target: T32, 4H754-bH; experiment: two-hybrid library CCNG1
# 4H968-bH = biological target: T33, 4H968-bH; experiment: two-hybrid library CCNG1
# 4H3010-bH = biological target: T34, 4H3010-bH; experiment: two-hybrid library CCNG1
# 4H112-bH = biological target: T35, 4H112-bH; experiment: two-hybrid library CCNG1
# 4H2233-bH = biological target: T36, 4H2233-bH; experiment: two-hybrid library CCNG1
# 4H170-bH = biological target: T37, 4H170-bH; experiment: two-hybrid library CCNG1
# 4H797-bH = biological target: T38, 4H797-bH; experiment: two-hybrid library CCNG1
# 4H780-bH = biological target: T39, 4H780-bH; experiment: two-hybrid library CCNG1
# 4H918-bH = biological target: T40, 4H918-bH; experiment: two-hybrid library CCNG1
# 4H2673-bH = biological target: T41, 4H2673-bH; experiment: two-hybrid library CCNG1
# 4H2702-bH = biological target: T42, 4H2702-bH; experiment: two-hybrid library CCNG1
# 4H575-bH = biological target: T43, 4H575-bH; experiment: two-hybrid library CCNG1
# 4H2586-bH = biological target: T44, 4H2586-bH; experiment: two-hybrid library CCNG1
# 4H457-bH = biological target: T45, 4H457-bH; experiment: two-hybrid library CCNG1
# 4H855-bH = biological target: T46, 4H855-bH; experiment: two-hybrid library CCNG1
# 4H1831-bH = biological target: T47, 4H1831-bH; experiment: two-hybrid library CCNG1
# 4H683-bH = biological target: T48, 4H683-bH; experiment: two-hybrid library CCNG1
# 4H3926-bH = biological target: T49, 4H3926-bH; experiment: two-hybrid library CCNG1
# 4H4073-bH = biological target: T50, 4H4073-bH; experiment: two-hybrid library CCNG1
# 4H3427-bH = biological target: T51, 4H3427-bH; experiment: two-hybrid library CCNG1
binder,measurement,setting,value
DENAALEAENAALEAKIAALKAEIAALEG [4H1193-AA],interaction score,4H3625-AA,0.75
same,interaction score,4H134-AA,1.42
same,interaction score,O11-AA,-1.11
same,interaction score,4H3587-AA,0.0373
same,interaction score,4H_APH,-1.85
same,interaction score,4H337-AA,-1.69
same,interaction score,4H3590-AA,1.11
same,interaction score,4H2736-AA,-0.353
same,interaction score,4H_BCR,-1.78
same,interaction score,O13-AA,-0.387
same,interaction score,4H1350-AA,1.11
same,interaction score,4H4038-AA,2.18
same,interaction score,4H384-AA,-1.19
same,interaction score,O14-AA,-1.3
same,interaction score,4H451-AA,-1.06
same,interaction score,4H1385-AA,-0.776
same,interaction score,4H1392-AA,-0.855
same,interaction score,4H3049-AA,1.47
same,interaction score,4H2888-AA,0.331
same,interaction score,GCN2_T,-1.62
same,interaction score,4H_GCN4,-1.64
same,interaction score,4H510-AA,-0.152
same,interaction score,4H43-AA,-0.557
same,interaction score,4H2705-AA,-1.54
same,interaction score,4H3905-AA,-0.00198
same,interaction score,4H1193-AA,-1.08
same,interaction score,4H2622-AA,1.87
DEIQELEKEIEELKRKIWELKKKNQELKR [4H112-bH],interaction score,4H1158-bH,1.45
same,interaction score,4H118-bH,0.444
same,interaction score,4H953-bH,-0.228
same,interaction score,4H3112-bH,1.27
same,interaction score,4H2627-bH,1.4
same,interaction score,4H346-bH,0.154
same,interaction score,4H754-bH,-0.515
same,interaction score,4H968-bH,0.0767
same,interaction score,4H3010-bH,1.49
same,interaction score,4H112-bH,1.65
same,interaction score,4H2233-bH,-0.606
same,interaction score,4H170-bH,-0.736
same,interaction score,4H797-bH,-0.295
same,interaction score,4H780-bH,0.211
same,interaction score,4H918-bH,-0.152
same,interaction score,4H2673-bH,0.53
same,interaction score,4H2702-bH,0.179
same,interaction score,4H575-bH,-0.63
same,interaction score,4H2586-bH,0.807
same,interaction score,4H457-bH,1.45
same,interaction score,4H855-bH,-0.0783
same,interaction score,4H1831-bH,0.143
same,interaction score,4H683-bH,0.914
same,interaction score,4H3926-bH,0.23
same,interaction score,4H4073-bH,1.39
same,interaction score,4H3427-bH,1.48

# — article PMC10397247
